B1: Bacillus stearothermophilus primase DnaG (native) (enzyme, B. stearothermophilus, UniProt Q9X4D0 1-597, looked up)
chain: MGHRIPEETIEAIRRGVDIVDVIGEYVQLKRQGRNYFGLCPFHGEKTPSFSVSPEKQIFHCFGCGAGGNAFTFLMDIEGIPFVEAAKRLAAKAGVDLSVYELDVRGRDDGQTDEAKAMTEAHALLKRFYHHLLVHTKEGQAALDYLQARGWTKETIDRFEIGYAPDAPDAAAKLLESHSFSLPVMEKAGLLTKKEDGRYVGRFRNRIMFPIHDHRGETVGFSGRLLGEGHPKYVNSPETPVFRKGAILYHFHAARVPIRKRQEALLVEGFADVISAAQAGIDYAIATMGTSLTEEQARILRPCDTITICYDGDRAGIEAAWAAAEQLSALGCRVKVASLPNGLDPDEYIRVYGGERFAGEAGCRRPLVAFKMAYLRRGKNLQHEGERLRYIDEALREIGKLSSPVEQDYYLRQLAEEFSLSLSALHEQLSRSQRERTKPREAPDGETARPMLAKKLLPAFQNAERLLLAHMMRSRDVALVVQERIGGRFNIEEHRALAAYIYAFYEEGHEADPGALISRIPGELQPLASDVSLLLIADDVSEQELEDYIRHVLNRPKWLMLKVKEQEKTEAERRKDFLTAARIAKEMIEMKKMLSSS
B2: Bacillus stearothermophilus replicative helicase DnaB (native) (enzyme, B. stearothermophilus)
chain: MSELFSERIPPQSIEAEQAVLGAVFLDPAALVPASEILIPEDFYRAAHQKIFHAMLRVADRGEPVDLVTVTAELAASEQLEEIGGVSYLSELADAVPTAANVEYYARIVEEKSVLRRLIRTATSIAQDGYTREDEIDVLLDEADRKIMEVSQRKHSGAFKNIKDILVQTYDNIEMLHNRDGEITGIPTGFTELDRMTSGFQRSDLIIVAARPSVGKTAFALNIAQNVATKTNENVAIFSLEMSAQQLVMRMLCAEGNINAQNLRTGKLTPEDWGKLTMAMGSLSNAGIYIDDTPSIRVSDIRAKCRRLKQESGLGMIVIDYLQLIQGSGRSKENRQQEVSEISRSLKALARELEVPVIALSQLSRSVEQRQDKRPMMSDIRESGSIEQDADIVAFLYRDDYYNKDSENKNIIEIIIAKQRNGPVGTVQLAFIKEYNKFVNLERRFDEAQIPPGA

Assay [1] concerns the target Bacillus stearothermophilus replicative helicase DnaB (native) (B. stearothermophilus) (UniProt Q9X4C9). Nature of the assay: ITC. A general note: In ITC the heat of successive injections is recorded.
Assay [2] concerns the target B2. Nature of the assay: ITC.
Assay [3] addresses B1. Nature of the assay: ITC.
Assay [4] addresses T1, B. stearothermophilus primase DnaG E464G (B. stearothermophilus, UniProt Q9X4D0 1-597, E464G).
T1 sequence (looked up): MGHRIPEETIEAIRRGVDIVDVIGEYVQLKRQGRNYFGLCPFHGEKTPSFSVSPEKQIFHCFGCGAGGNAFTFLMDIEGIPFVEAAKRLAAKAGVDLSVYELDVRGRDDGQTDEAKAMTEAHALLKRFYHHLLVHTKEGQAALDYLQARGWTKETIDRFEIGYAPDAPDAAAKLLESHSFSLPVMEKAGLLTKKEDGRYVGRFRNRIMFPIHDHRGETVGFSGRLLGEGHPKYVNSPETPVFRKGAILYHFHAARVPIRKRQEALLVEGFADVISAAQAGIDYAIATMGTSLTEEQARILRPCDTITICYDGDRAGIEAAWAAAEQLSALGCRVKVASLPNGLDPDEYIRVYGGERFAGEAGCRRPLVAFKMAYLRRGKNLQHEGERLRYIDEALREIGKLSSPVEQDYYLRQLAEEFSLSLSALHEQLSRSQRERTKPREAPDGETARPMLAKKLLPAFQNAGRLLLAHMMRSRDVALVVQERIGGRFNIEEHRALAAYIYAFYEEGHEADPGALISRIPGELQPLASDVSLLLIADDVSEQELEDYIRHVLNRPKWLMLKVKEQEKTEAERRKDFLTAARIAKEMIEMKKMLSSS
Nature of the assay: ITC.

Assay [5] has as its target T2, B. stearothermophilus primase DnaG H494A (B. stearothermophilus, UniProt Q9X4D0 1-597, H494A).
T2 sequence (looked up): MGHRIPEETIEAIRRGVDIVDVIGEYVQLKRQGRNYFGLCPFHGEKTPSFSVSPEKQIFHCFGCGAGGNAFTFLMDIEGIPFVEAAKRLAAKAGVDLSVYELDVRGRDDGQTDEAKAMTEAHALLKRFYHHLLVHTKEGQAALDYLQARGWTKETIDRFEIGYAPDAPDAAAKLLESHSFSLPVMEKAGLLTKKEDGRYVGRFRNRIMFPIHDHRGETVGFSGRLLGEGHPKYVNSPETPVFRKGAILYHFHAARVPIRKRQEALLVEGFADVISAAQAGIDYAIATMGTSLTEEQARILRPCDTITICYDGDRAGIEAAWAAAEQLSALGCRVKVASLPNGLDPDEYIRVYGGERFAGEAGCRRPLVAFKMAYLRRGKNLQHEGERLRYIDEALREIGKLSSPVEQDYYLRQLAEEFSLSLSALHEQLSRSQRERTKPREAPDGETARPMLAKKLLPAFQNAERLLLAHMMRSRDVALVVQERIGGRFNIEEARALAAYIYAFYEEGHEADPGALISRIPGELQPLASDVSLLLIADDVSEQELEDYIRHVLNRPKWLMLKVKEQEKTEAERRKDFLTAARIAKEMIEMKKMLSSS
Briefly: ITC.

Assay [6] concerns the target T3, B. stearothermophilus primase DnaG R555A (B. stearothermophilus, UniProt Q9X4D0 1-597, R555A).
T3 sequence (looked up): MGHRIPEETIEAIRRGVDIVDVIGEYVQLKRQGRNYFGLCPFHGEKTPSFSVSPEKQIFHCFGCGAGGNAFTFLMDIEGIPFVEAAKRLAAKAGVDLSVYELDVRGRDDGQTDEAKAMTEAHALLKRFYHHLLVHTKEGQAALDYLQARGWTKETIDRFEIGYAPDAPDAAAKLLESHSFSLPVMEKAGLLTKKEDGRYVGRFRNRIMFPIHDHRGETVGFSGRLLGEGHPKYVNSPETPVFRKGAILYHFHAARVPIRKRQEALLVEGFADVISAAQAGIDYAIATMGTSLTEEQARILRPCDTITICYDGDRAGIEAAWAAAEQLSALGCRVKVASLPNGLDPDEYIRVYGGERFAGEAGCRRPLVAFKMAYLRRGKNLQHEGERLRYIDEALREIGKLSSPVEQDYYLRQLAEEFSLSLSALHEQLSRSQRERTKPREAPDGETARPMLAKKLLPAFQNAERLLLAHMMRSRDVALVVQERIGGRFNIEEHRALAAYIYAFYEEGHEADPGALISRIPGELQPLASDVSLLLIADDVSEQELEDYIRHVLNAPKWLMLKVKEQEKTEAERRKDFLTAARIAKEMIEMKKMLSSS
Briefly: SEC. On the technique in general: In gel filtration, larger molecules generally elute earlier.

In assay [7] the target is T4, B. stearothermophilus primase DnaG R495A (B. stearothermophilus, UniProt Q9X4D0 1-597, R495A).
T4 sequence (looked up): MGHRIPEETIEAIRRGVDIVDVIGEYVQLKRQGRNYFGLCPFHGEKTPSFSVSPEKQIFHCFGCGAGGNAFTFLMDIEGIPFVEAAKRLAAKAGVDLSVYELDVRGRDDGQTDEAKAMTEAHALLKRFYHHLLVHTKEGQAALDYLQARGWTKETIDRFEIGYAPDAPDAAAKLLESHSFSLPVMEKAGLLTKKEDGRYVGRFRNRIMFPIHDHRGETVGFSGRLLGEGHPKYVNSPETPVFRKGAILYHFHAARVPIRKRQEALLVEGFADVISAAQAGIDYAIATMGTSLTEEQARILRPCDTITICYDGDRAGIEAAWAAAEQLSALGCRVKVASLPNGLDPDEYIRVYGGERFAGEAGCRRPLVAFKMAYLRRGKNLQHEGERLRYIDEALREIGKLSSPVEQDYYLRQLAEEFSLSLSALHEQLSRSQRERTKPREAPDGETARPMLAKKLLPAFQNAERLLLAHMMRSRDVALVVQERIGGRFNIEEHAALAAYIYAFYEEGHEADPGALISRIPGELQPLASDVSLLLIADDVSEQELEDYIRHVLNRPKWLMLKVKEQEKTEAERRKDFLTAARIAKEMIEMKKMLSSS
Briefly: SEC.

For orientation: Kd means a measure of binding affinity in units of concentration. Lower therefore signals tighter binding. By stoichiometry N is commonly meant the number of molecules, sites or subunits per partner or assembly. In assay [1], “B. stearothermophilus primase DnaG Y548A (from UniProt Q9X4D0 1-597) (enzyme)” yielded a Kd of 83.3 nM and a stoichiometry N of 0.509.

As for B1, in assay [2], the dH is 17.8 kcal/mol and the “stoichiometry N” value was determined as 0.287.

Consider B2, for which the Ka was determined as 1.42e+08 M⁻¹ in assay [3], 1.18e+08 M⁻¹ in assay [4] and 1.18e+08 M⁻¹ in assay [5]. In addition, the Kd amounted to 7.04 nM in assay [3], 8.5 nM in assay [4] and 8.5 nM in assay [5]. Moreover, the binding result in assay [6] and in assay [7] was “binds” throughout.

The values above are taken from paper PMC3035050 (Molecular microbiology, 2008).
